Test results reported in patent publication US20210253731A1 (BETH ISRAEL DEACONESS MEDICAL CENTER, published 2021).

T1: human CD39 (human, UniProt P49961 38-478, limits assumed)
T1 construct: Target as named in the general statements on 5F2 and PB1-PB5 specificity; also called hCD39; ectonucleoside triphosphate diphosphohydrolase-1
T1 sequence (looked up): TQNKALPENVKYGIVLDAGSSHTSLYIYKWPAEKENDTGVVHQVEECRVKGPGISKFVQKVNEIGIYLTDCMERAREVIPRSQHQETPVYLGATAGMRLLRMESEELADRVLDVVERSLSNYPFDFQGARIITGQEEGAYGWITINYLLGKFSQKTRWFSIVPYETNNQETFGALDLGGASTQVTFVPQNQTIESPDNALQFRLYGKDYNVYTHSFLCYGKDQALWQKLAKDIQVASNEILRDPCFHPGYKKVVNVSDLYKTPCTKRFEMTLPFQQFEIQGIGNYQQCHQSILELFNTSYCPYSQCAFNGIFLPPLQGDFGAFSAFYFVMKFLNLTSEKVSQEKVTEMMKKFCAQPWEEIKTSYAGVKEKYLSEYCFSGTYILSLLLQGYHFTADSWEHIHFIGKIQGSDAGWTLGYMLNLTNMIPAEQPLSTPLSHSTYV

T2: mouse CD39 (mouse, UniProt P55772 38-478, limits assumed)
T2 construct: Target as named in the general statement on 5F2 specificity; also called mCD39
T2 sequence (looked up): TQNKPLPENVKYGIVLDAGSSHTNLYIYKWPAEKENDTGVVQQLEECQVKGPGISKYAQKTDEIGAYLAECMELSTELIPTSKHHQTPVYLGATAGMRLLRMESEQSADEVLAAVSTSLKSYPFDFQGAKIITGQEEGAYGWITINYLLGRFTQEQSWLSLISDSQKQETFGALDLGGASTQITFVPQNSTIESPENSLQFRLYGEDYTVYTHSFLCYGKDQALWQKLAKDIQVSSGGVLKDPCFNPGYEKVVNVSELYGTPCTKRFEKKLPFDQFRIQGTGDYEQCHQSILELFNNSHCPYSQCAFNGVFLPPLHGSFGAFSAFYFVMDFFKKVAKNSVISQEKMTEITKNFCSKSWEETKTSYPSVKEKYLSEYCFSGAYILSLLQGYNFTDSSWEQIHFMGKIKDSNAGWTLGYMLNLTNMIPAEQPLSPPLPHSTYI


Key:
human CD39 = biological target: T1, human CD39; test: assay not described
mouse CD39 = biological target: T2, mouse CD39; test: assay not described

Binder	binding result (human CD39)	binding result (mouse CD39)
PB4 rabbit monoclonal anti-human CD39 antibody (antibody, V domains shown, Full rabbit heavy and light chains) VH: QEQLVESGGGLVQPEGSLTLTCTASGFSFSSSYYMCWVRQAPGKGLEWIGCIYIGSSTTYYATWAKGRFTISKTSSTAVTLQMTGLTAADTATYFCARDQYDDSGNLWGPGTLVTVSS VL: DVVMTQTPASVSEPVGGTVTIKCQASQSIYSGLAWYQQKPGQPPNLLIYKASNLASGVSSRFKGSRSGTEYTLTISDLECADAATYYCQNWYGISSYGRAFGGGTEVVVKG	binds	–
murine monoclonal 5F2 (anti-CD39 antibody) (antibody, V domains shown, also called anti-CD39 5F2 antibody; 5F2 mAb) VH: EVQLEESGPGLVQPSQRLSITCTISGFSLTSYGIHWVRQSPGKGLEWLGVIWSGGNTDYNAAFISRLSISKDNSKSQVFFKMNSLQVGDTATYYCARNGHGSNIPWFVYWGQGTLVTVST VL: DIQLTQSPASLSVATGEKVTIRCITSTDVDDDMNWFQQKPGEPPNLLISEGDTLRPGVPSRFSSSGYGTDFVFTIENTLSEDVADYYCLQSDNMPLTFGGGTKLEIK	binds	binds
